Test results: article PMC7003530 (Biochemistry, 2019)

Target: Factor-inhibiting HIF-1 (human, UniProt Q9NWT6 1-349)
Test: other fluorescence titration

- Kd: 92 ± 9 µM
B1: 39-residue CTAD peptide substrate, human HIF-1α 788–826 with C800A (peptide)
peptide: H-DESGLPQLTSYDAEVNAPIQGSRNLLQGEELLRALDQVN-OH
